Reference: US20210113678A1 (ENTEROME S A, published 2021)

Key:
[1] = biological target: T1, HLA-A*0201 molecule on human T2 cells (human); test: T2 cells expressing HLA-A*0201, anti-HLA-A2-PE, FACS
T1 construct: read out with anti-HLA-A2 antibody BB7.2-PE; also called HLA-A2

[2] = biological target: T1, HLA-A*0201 molecule on human T2 cells; test: as above; remark: listed apart in the source
[3] = biological target: T2, HLA-A*0201 molecule expressed by the human tumoral cell T2 (human); test: T2 cell HLA-A2 stabilisation assay, flow cytometry with anti-HLA-A2 BB7.2-PE
T2 construct: MHC class I on T2 cells; The tested peptide is added from outside; Surface HLA-A2 is read with anti-HLA-A2 antibody BB7.2-PE; also called HLA-A2

| Binder | mean relative fluorescence intensity at 1.5625 µM peptide [1] | mean relative fluorescence intensity at 3.125 µM peptide [1] | mean relative fluorescence intensity at 6.25 µM peptide [1] | mean relative fluorescence intensity at 25 µM peptide [1] | mean relative fluorescence intensity at 100 µM peptide [1] | Concentration of peptide that induces 20% of HLA-A2 expression [2] [µM] | In vitro binding affinity (relative to reference peptide HIV pol 589-597) [2] | mean relative fluorescence intensity at 50 µM peptide [1] | binding result [3] |
| --- | --- | --- | --- | --- | --- | --- | --- | --- | --- |
| AVFRVLIPV [EZH2-B2] | 0 % of HIV peptide | 0 % of HIV peptide | 0.5 % of HIV peptide | 74.8 % of HIV peptide | 112 % of HIV peptide | 8.3 | 1.7 |  |  |
| WLPFGFILI (Fragment of human IL13RA2) [IL13RA2-H] | 3 % of HIV peptide | 3.7 % of HIV peptide | 9.6 % of HIV peptide | 11.2 % of HIV peptide | 26.5 % of HIV peptide |  |  | 14.2 % of HIV peptide |  |
| LLLSAALSA (Fragment of human CHI3L1) [CHI3L1H] | -1.9 % of HIV peptide | 1 % of HIV peptide | 4.4 % of HIV peptide | 4.9 % of HIV peptide | 11.2 % of HIV peptide |  |  | 14.5 % of HIV peptide |  |
| LLLSAALSV [CHI3L1B] | 13.5 % of HIV peptide | 23.9 % of HIV peptide | 44 % of HIV peptide | 45.3 % of HIV peptide | 58.9 % of HIV peptide | 3.6 | 0.9 | 85 % of HIV peptide |  |
| FLPFGFILV [IL13RA2-B] |  |  |  |  |  |  |  |  | binds |
| FLPFGFILM [peptide 1F9M] |  |  |  |  |  |  |  |  | binds |
| ALPFGFILV [comparative peptide 1A9V] |  |  |  |  |  |  |  |  | binds |
| SMEELLWFV [TYMS-B] | 15.9 % of HIV peptide | 30.4 % of HIV peptide | 36 % of HIV peptide | 49.3 % of HIV peptide | 80.9 % of HIV peptide | 1.1 | 0.1 | 65.7 % of HIV peptide |  |
| ILPFGFILA [peptide 1I9A] |  |  |  |  |  |  |  |  | binds |
| LMDLSTTPL (Fragment of human FOXM1) [FOXM1-H2] | 5.3 % of HIV peptide | 0.9 % of HIV peptide | 19.7 % of HIV peptide | 65.4 % of HIV peptide | 77.6 % of HIV peptide | 12.6 | 2.5 | 62.5 % of HIV peptide |  |
| FLVEDETVI [EZH2-B] | 5.5 % of HIV peptide | 14.4 % of HIV peptide | 28.9 % of HIV peptide | 53.9 % of HIV peptide | 94.9 % of HIV peptide | 8.8 | 0.7 | 82.6 % of HIV peptide |  |
| FLDSLGFST [TYMS-H2] | 1.6 % of HIV peptide | 4.5 % of HIV peptide | 6.1 % of HIV peptide | 32.5 % of HIV peptide | 50.6 % of HIV peptide | 9.5 | 0.8 | 37.2 % of HIV peptide |  |
| FLDSLGFSL [TYMS-B2] | 10.7 % of HIV peptide | 21.5 % of HIV peptide | 27.5 % of HIV peptide | 61.1 % of HIV peptide | 71.3 % of HIV peptide | 2.7 | 0.2 | 62 % of HIV peptide |  |
| SMFRVLIGT (Fragment of human EZH2) [EZH2-H2] | 0 % of HIV peptide | 0 % of HIV peptide | 0 % of HIV peptide | 13.3 % of HIV peptide | 78.2 % of HIV peptide | 39.2 | 7.8 |  |  |
| RVSSYLVPI (Fragment of human FOXM1) [FOXM1-H] | 0 % of HIV peptide | 0 % of HIV peptide | 0 % of HIV peptide | 10.5 % of HIV peptide | 83.8 % of HIV peptide | 37.6 | 3.7 | 30.7 % of HIV peptide |  |
| VLEELLWFI (Fragment of human TYMS) [TYMS-H] | 8.6 % of HIV peptide | 15.3 % of HIV peptide | 26.6 % of HIV peptide | 38.1 % of HIV peptide | 50.2 % of HIV peptide | 4.1 | 0.3 | 40.4 % of HIV peptide |  |
| YTLGEFLYI [BIRC5-B2] |  | 6.6 % of HIV peptide | 9 % of HIV peptide | 29.6 % of HIV peptide | 58 % of HIV peptide | 14.7 | 4.5 | 54.4 % of HIV peptide |  |
| ILDEAYVRV [EGFR-B] | 12.7 % of HIV peptide | 22.7 % of HIV peptide | 29.2 % of HIV peptide | 53.2 % of HIV peptide | 70.3 % of HIV peptide | 3.1 | 0.2 | 66.7 % of HIV peptide |  |
| LMDLSTTEV [FOXM1-B2] | 7.2 % of HIV peptide | 12.7 % of HIV peptide | 33.5 % of HIV peptide | 98.2 % of HIV peptide | 105 % of HIV peptide | 6.7 | 1.3 | 91.5 % of HIV peptide |  |
| YLLSAALTI [CHI3L1B3] | 2.5 % of HIV peptide | 14.3 % of HIV peptide | 30.2 % of HIV peptide | 36.7 % of HIV peptide | 76.9 % of HIV peptide | 8.6 | 2.2 | 108 % of HIV peptide |  |
| FMVEDETVL (Fragment of human EZH2) [EZH2-H] | 0 % of HIV peptide | 0.7 % of HIV peptide | 10.6 % of HIV peptide | 40.7 % of HIV peptide | 95.4 % of HIV peptide | 13.3 | 1.1 | 66 % of HIV peptide |  |
| LMLGEFLKL [peptide 2M] |  |  |  |  |  |  |  |  | binds |
| LTLGEFLKL [BIRC5-H] |  |  |  |  |  |  |  |  | binds |
| FMLGEFLKL [BIRC5-B1] |  |  |  |  |  |  |  |  | binds |
| GLLGEFLQI (also called B1RC5-B3) [BIRC5-B3] | 9.4 % of HIV peptide | 8.9 % of HIV peptide |  | 20.9 % of HIV peptide | 35 % of HIV peptide | 22.9 | 7 | 29.8 % of HIV peptide |  |
| RLSSYLVEI [FOXM1-B] | 0 % of HIV peptide | 0 % of HIV peptide | 0 % of HIV peptide | 7.6 % of HIV peptide | 47.5 % of HIV peptide | 46.7 | 4.6 | 21.3 % of HIV peptide |  |
